One molecule from paper doi:10.1101/2021.08.20.457118 (bioRxiv, 2021) can be followed below.

The target in this assay is linear di-Ub (M1-linear from UbiQ) (UniProt P0CG47). Briefly: SPR. In general terms: Surface plasmon resonance follows binding to a sensor surface in real time, without labels.

B1: His-tagged Ufd2p (enzyme)
chain: MTAIEDILQITTDPSDTRGYSLLKSEEVPQGSTLGVDFIDTLLLYQLTENEKLDKPFEYLNDCFRRNQQQKRITKNKPNAESLHSTFQEIDRLVIGYGVVALQIENFCMNGAFINYITGIVSNVNSYTDFLSQIIQRAILEGTALDLLNAVFPTLLEYCNKHVSHFDLNESVIYNNVLTIFELFVTFKPIAEIFTKIDGFFADYSCKPQDFERKTILGPILSLSPIEAAVAIRNYGDNLLRSKQQTAMIHESLQAEHKVVIDRLFFIVDKLVRGSLNSRTDMISYFAHIANKNHLRRADHPPFKELSSNGFMSNITLLLVRFSQPFLDISYKKIDKIDANYFNNPSLFIDLSGETRLNSDFKEADAFYDKNRKTADSKPNFISDCFFLTLTYLHYGLGGTLSFEEKMGSEIKALKEEIEKVKKIAANHDVFARFITAQLSKMEKALKTTESLRFALQGFFAHRSLQLEVFDFICGASTFLIRVVDPEHEFPFKQIKLPLIPDQIGVENVDNADFLRAHAPVPFKYYPEFVVEGPVNYSLYISKYQTSPIFRNPRLGSFVEFTTMVLRCPELVSNPHLKGKLVQLLSVGAMPLTDNSPGFMMDIFEHDELVNKNLLYALLDFYVIVEKTGSSSQFYDKFNSRYSISIILEELYYKIPSYKNQLIWQSQNNADFFVRFVARMLNDLTFLLDEGLSNLAEVHNIQNELDNRARGAPPTREEEDKELQTRLASASRQAKSSCGLADKSMKLFEIYSKDIPAAFVTPEIVYRLASMLNYNLESLVGPKCGELKVKDPQSYSFNPKDLLKALTTVYINLSEQSEFISAVAKDERSFNRNLFVRAVDILGRKTGLASPEFIEKLLNFANKAEEQRKADEEEDLEYGDVPDEFLDPLMYTIMKDPVILPASKMNIDRSTIKAHLLSDSTDPFNRMPLKLEDVTPNEELRQKILCFKKQKKEEAKHKASE
In the case of B1, the binding result was “binds”.
